Source: PMC3470943, “Identification of BACE2 as an avid ß-amyloid-degrading protease” (Molecular Neurodegeneration, 2012)

B1: BACE2: ß-site APP-cleaving enzyme-2, aspartyl protease; recombinant enzyme (R&D Systems) or transfected human cDNA (protein, UniProt Q9Y5Z0 63-518, looked up)
Beta-secretase 2: ALEPALASPAGAANFLAMVDNLQGDSGRGYYLEMLIGTPPQKLQILVDTGSSNFAVAGTPHSYIDTYFDTERSSTYRSKGFDVTVKYTQGSWTGFVGEDLVTIPKGFNTSFLVNIATIFESENFFLPGIKWNGILGLAYATLAKPSSSLETFFDSLVTQANIPNVFSMQMCGAGLPVAGSGTNGGSLVLGGIEPSLYKGDIWYTPIKEEWYYQIEILKLEIGGQSLNLDCREYNADKAIVDSGTTLLRLPQKVFDAVVEAVARASLIPEFSDGFWTGSQLACWTNSETPWSYFPKISIYLRDENSSRSFRITILPQLYIQPMMGAGLNYECYRFGISPSTNALVIGATVMEGFYVIFDRAQKRVGFAASPCAEIAGAAVSEISGPFSTEDVASNCVPAQSLSEPILWIVSYALMSVCGAILLVLIVLLLLPFRCQRRPRDPEVVNDESSLVRHRWK
B2: BACE1: ß-site APP-cleaving enzyme-1, homolog of BACE2; recombinant enzyme or transfected cDNA (protein, UniProt P56817 46-501, looked up)
Beta-secretase 1: ETDEEPEEPGRRGSFVEMVDNLRGKSGQGYYVEMTVGSPPQTLNILVDTGSSNFAVGAAPHPFLHRYYQRQLSSTYRDLRKGVYVPYTQGKWEGELGTDLVSIPHGPNVTVRANIAAITESDKFFINGSNWEGILGLAYAEIARPDDSLEPFFDSLVKQTHVPNLFSLQLCGAGFPLNQSEVLASVGGSMIIGGIDHSLYTGSLWYTPIRREWYYEVIIVRVEINGQDLKMDCKEYNYDKSIVDSGTTNLRLPKKVFEAAVKSIKAASSTEKFPDGFWLGEQLVCWQAGTTPWNIFPVISLYLMGEVTNQSFRITILPQQYLRPVEDVATSQDDCYKFAISQSSTGTVMGAVIMEGFYVVFDRARKRIGFAVSACHVHDEFRTAAVEGPFVTLDMEDCGYNIPQTDESTLMTIAYVMAAICALFMLPLCLMVCQWRCLRCLRQQHDDFADDISLLK

Columns and labels:
[1] = tested on: Aß40 levels produced by CHO cells co-transfected with human APP-AP; assay: Functional cDNA screen for Aß-lowering proteases, co-transfection with APP-AP; format: cell-based, CHO cells (rodent cell line); settings: protease cDNA 100 ng/well co-transfected with APP-AP 60 ng/well; 24 h conditioned medium; normalized to intra-plate controls; quadruplicate
Method: A library of 352 full-length, sequence verified, human cDNAs encoding diverse members of all protease classes was purchase from a commercial source (OriGene Technologies, Inc.) in 96-well format (100 ng/well). For negative and positive controls, a subset of blank wells on each plate were supplemented with empty vector or a construct expressing a well-established AßDP, human ECE1b, respectively (100 ng/well). As a source of human Aß and also as a transfection control, each well was cotransfected with a hybrid construct, APP-AP (60 ng/well), comprised of a vector expressing wild-type human APP fused at its N-terminus with alkaline phosphatase (AP). Additional blank wells were left untreated for cell-free background controls. […]
Following heat treatment to inactivate endogenous phosphatases (65°C for 15 min) present in the media, conditioned media (30 μL/well) was added to 96-well plates containing AP substrate, 4-nitrophenylphosphate (170 μL/well, 2 mg/mL), dissolved in AP buffer (1 M diethanolamine, 0.5 mM MgCl2, 10 mM L-homoarginine, pH 9.8). Plates were incubated for 30 min and AP activity was determined from absorbance (OD405) using a SpectraMax® M5^e multilabel plate reader (Molecular Devices).
Aβ levels were quantified using a sandwich ELISA system based on antibody pairs 33.1.1/13.1.1 for Aβ40 and 2.1.3/4 G8 for Aβ42 as described previously. […]

[2] = tested on: net Aß40 and Aß42 levels of CHO cells expressing APP-AP; assay: Confirmation: co-transfection of BACE2 or BACE1 cDNA with APP-AP, Aß40 and Aß42 ELISA; format: cell-based; settings: CHO cells co-transfected with APP-AP, 4 replicates, normalized to vector-only controls
Method: Figure 1 Overview and outcome of functional screening for novel Aß-lowering proteases. A, Cartoon illustrating the overall design of the screen. Briefly, an arrayed collection of 352 protease-encoding cDNAs was cotransfected into CHO cells together with an APP-AP fusion construct. Following a medium change and overnight incubation, Aß40 levels, AP activity, and cytotoxicity (via MTT assay) were analyized in the resulting conditioned media. B, Results of the screen, expressed as [Aß40]/AP ratios normalized to intraplate controls. Data are mean of 4 replicates. Note that the largest decrease in Aß levels by far was acheived by BACE2. C, Confirmation of the results of the screen. Following scale-up and sequence verification, cDNAs encoding BACE2 and its homolog, BACE1, were cotransfected together with APP-AP into CHO cells. […]
Aβ levels were quantified using a sandwich ELISA system based on antibody pairs 33.1.1/13.1.1 for Aβ40 and 2.1.3/4 G8 for Aβ42 as described previously. Conditioned media were supplemented with Complete^TM Protease Inhibitor Cocktail (Roche) just after collection and analyzed immediately. For experiments quantifying intracellular Aß, cells were plated in 96-well plates (2 x 10^4 cells per well) and transfected with BACE2-encoding cDNA or empty vector, washed, then incubated with 400 nM synthetic Aß for 6 h. […]

[3] = tested on: pre-formed fibrils of Aß42; assay: Thioflavin T fluorescence of pre-formed Aß42 fibrils incubated with BACE2; format: biochemical; settings: BACE2 10 nM, 37°C, up to 3 d / 5 d (legend Figure 2D), 3 replicates
Method: Figure 2 BACE2 degrades Aß in vitro. A, Percent Aß remaining following incubation with different concentrations of recombinant BACE2 for various lengths of time. Data are mean ± SEM of 4 replicates, normalized to protease-free controls. B, Comparison the relative Aß-degrading ability of recombinant BACE2 vs. BACE1. Note that 24 h incubation with BACE1 was required to achieve approximately the same extent of degradation as effected by BACE2 in 10 min. Data are mean ± SEM of 3 replicates, normalized to protease-free controls. C, BACE2 activity is pH dependent. Percent Aß degradation catalyzed by equivalent amounts of BACE2 at different pH values. Data are mean ± SEM of 4 replicates. […] Data are mean ± SEM of 3 replicates.
Individual AßDPs can be categorized in terms of their ability or inability to degrade fibrillar forms of Aß. Many well-established AßDPs, such as IDE and NEP, avidly degrade monomeric Aß but cannot degrade fibrillar forms and are therefore categorized as pure peptidases. Others, such as plasmin, degrade Aß fibrils and thus can also be categorized as fibrilases.

[4] = tested on: Aß (fluorescent substrate FAβB); assay: Fluorescence polarization-based Aß degradation assay; format: biochemical; settings: 37°C
Method: The kinetics of Aβ40 and Aβ42 degradation by BACE2 were determined using freshly prepared, monomeric Aβ peptides separated from aggregated species by size-exclusion chromatography and characterized as described. Aβ peptides were diluted in neutral Dilution Buffer (20 mM Tris, pH 8.0 supplemented with 0.1% BSA) and reactions were initiated by transfer into 20 times more volume of Assay Buffer supplemented with purified recombinant BACE2 (R&D Systems, nominal concentration 1 or 5 nM) or, as a control for non-specific loss of Aβ, the latter buffer lacking BACE2. Where required, reactions were terminated by supplementation with protease inhibitor cocktail and adjustment to neutral pH. For ELISA-based experiments, Aβ42 and Aβ40 were quantified using the sandwich ELISAs described above. […] For determination of the pH dependence of Aβ degradation, experiments were carried same as described above, using Assay Buffer at different pH values (3.0, 3.5, 4.0, 4.5, 5.0, 5.5). The reactions were stopped at 10 min and the remaining 200nM of Aβ was determined using a well-characterized fluorescence polarization-based activity Aß degradation assay, as described. […] The degree of Aβ hydrolysis was immediately determined using a polarization-based Aß degradation assay. […]

| Molecule | decrease in normalized Aß levels ([Aß40]/AP ratio) [1] [%] | effect of overexpression on net Aß40 and Aß42 levels [2] | effect on aggregation of pre-formed Aß42 fibrils [3] | pH of maximal Aß40 hydrolysis ([4]; Assay Buffer at pH 3.0, 3.5, 4.0, 4.5, 5.0, 5.5, 200 nM Aβ, stopped at 10 min, 4 replicates) | efficiency of Aß degradation, fold lower than that of BACE2 ([4]; BACE1 24 h vs BACE2 10 min for a similar extent of degradation, Assay Buffer pH 4.0) |
| --- | --- | --- | --- | --- | --- |
| B1 | 97 ± 1.2 | decreased the levels of both Aβ40 and Aβ42 | No significant reduction in aggregation | 3.5 |  |
| B2 |  | no effect |  |  | ~ 150 fold |
